# Data reported in IntAct's records for PubMed 12626503.
# B1: Rho guanine nucleotide exchange factor 7 (Mus musculus), Q9ES28-2 (parent)
# chain: MNSAEQTVTWLITLGVLESPKKTISDPEVFLQASLKDGVVLCRLLERLLPGTIEKVYPEPRNESECLSNIREFLRACGASLRLETFDANDLYQGQNFNKVLSSLVTLNKVTADIGLGSDSVCARPSSHRIKSFDSLGSQSSHSRTSKLLQSQYRSLDMTDNTNSQLVVRAKFNFQQTNEDELSFSKGDVIHVTRVEEGGWWEGTHNGRTGWFPSNYVREIKPSEKPVSPKSGTLKSPPKGFDTTAINKSYYNVVLQNILETEHEYSKELQSVLSTYLRPLQTSDKLSSANTSYLMGNLEEISSFQQVLVQSLEECTKSPEAQQRVGGCFLSLMPQMRTLYLAYCANHPSAVSVLTEHSEDLGEFMETKGASSPGILVLTTGLSKPFMRLDKYPTLLKELERHMEDYHPDRQDIQKSMTAFKNLSAQCQEVRKRKELELQILTEPIRSWEGDDIKTLGSVTYMSQVTIQCAGSEEKNERYLLLFPNLLLMLSASPRMSGFIYQGKLPTTGMTITKLEDSENHRNAFEISGSMIERILVSCTSQQDLHEWVEHLQKQTKVTSVSNPTIKPHSVPSHTLPSHPLTPSSKHADSKPVALTPAYHTLPHPSHHGTPHTTISWGPLEPPKTPKPWSLSCLRPAPPLRPSAALCYKEDLSKSPKTMKKLLPKRKPERKPSDEEFAVRKSTAALEEDAQILKVIEAYCTSAKTRQTLNSSSRKESAPQVLLPEEEKIIVEETKSNGQTVIEEKSLVDTVYALKDEVQELRQDNKKMKKSLEEEQRARKDLEKLVRKVLKNMNDPAWDETNL
# B2: Rho guanine nucleotide exchange factor 7 (Mus musculus), Q9ES28-2 (parent)
# chain: B1 chain
# partner: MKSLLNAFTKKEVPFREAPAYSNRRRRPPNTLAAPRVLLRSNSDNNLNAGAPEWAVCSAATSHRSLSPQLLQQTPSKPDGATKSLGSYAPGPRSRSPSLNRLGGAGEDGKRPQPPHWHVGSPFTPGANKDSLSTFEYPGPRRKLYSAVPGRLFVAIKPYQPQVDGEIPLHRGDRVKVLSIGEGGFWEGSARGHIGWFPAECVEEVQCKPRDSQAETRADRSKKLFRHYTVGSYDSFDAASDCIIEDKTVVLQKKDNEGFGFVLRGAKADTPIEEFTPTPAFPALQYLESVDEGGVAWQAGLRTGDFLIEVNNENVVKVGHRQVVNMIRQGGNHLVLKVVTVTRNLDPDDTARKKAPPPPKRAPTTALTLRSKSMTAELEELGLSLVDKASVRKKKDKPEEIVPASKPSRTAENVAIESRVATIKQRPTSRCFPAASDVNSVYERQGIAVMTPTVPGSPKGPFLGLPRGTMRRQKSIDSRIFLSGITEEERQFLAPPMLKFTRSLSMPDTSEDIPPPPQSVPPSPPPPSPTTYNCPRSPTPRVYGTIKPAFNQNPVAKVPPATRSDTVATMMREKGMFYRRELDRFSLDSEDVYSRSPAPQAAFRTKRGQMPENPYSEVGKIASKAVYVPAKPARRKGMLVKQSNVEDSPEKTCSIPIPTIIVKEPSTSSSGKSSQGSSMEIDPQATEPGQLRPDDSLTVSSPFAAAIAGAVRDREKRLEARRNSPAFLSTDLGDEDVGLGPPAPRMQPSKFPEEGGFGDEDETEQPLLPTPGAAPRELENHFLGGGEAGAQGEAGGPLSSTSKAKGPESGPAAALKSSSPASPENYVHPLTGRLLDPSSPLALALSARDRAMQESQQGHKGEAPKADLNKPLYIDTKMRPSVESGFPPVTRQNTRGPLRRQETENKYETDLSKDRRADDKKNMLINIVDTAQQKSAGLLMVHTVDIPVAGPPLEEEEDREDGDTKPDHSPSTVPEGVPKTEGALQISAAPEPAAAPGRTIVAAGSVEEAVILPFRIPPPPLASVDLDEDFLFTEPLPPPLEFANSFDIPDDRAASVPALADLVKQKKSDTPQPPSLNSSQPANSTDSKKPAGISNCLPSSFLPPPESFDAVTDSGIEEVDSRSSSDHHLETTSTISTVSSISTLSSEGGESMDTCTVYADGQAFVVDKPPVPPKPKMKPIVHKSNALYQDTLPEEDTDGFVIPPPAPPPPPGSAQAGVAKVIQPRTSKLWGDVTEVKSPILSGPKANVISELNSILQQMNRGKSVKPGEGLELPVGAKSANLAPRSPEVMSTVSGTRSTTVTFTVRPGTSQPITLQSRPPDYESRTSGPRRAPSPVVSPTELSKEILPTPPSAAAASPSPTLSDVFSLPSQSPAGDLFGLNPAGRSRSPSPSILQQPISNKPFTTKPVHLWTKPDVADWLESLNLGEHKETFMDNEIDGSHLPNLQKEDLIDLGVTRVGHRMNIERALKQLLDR
# Variants of: B1
# Details: with shan1_rat Shank1, Q9WV48
# Sequence of shan1_rat Shank1, Q9WV48 (Q9WV48 whole entry): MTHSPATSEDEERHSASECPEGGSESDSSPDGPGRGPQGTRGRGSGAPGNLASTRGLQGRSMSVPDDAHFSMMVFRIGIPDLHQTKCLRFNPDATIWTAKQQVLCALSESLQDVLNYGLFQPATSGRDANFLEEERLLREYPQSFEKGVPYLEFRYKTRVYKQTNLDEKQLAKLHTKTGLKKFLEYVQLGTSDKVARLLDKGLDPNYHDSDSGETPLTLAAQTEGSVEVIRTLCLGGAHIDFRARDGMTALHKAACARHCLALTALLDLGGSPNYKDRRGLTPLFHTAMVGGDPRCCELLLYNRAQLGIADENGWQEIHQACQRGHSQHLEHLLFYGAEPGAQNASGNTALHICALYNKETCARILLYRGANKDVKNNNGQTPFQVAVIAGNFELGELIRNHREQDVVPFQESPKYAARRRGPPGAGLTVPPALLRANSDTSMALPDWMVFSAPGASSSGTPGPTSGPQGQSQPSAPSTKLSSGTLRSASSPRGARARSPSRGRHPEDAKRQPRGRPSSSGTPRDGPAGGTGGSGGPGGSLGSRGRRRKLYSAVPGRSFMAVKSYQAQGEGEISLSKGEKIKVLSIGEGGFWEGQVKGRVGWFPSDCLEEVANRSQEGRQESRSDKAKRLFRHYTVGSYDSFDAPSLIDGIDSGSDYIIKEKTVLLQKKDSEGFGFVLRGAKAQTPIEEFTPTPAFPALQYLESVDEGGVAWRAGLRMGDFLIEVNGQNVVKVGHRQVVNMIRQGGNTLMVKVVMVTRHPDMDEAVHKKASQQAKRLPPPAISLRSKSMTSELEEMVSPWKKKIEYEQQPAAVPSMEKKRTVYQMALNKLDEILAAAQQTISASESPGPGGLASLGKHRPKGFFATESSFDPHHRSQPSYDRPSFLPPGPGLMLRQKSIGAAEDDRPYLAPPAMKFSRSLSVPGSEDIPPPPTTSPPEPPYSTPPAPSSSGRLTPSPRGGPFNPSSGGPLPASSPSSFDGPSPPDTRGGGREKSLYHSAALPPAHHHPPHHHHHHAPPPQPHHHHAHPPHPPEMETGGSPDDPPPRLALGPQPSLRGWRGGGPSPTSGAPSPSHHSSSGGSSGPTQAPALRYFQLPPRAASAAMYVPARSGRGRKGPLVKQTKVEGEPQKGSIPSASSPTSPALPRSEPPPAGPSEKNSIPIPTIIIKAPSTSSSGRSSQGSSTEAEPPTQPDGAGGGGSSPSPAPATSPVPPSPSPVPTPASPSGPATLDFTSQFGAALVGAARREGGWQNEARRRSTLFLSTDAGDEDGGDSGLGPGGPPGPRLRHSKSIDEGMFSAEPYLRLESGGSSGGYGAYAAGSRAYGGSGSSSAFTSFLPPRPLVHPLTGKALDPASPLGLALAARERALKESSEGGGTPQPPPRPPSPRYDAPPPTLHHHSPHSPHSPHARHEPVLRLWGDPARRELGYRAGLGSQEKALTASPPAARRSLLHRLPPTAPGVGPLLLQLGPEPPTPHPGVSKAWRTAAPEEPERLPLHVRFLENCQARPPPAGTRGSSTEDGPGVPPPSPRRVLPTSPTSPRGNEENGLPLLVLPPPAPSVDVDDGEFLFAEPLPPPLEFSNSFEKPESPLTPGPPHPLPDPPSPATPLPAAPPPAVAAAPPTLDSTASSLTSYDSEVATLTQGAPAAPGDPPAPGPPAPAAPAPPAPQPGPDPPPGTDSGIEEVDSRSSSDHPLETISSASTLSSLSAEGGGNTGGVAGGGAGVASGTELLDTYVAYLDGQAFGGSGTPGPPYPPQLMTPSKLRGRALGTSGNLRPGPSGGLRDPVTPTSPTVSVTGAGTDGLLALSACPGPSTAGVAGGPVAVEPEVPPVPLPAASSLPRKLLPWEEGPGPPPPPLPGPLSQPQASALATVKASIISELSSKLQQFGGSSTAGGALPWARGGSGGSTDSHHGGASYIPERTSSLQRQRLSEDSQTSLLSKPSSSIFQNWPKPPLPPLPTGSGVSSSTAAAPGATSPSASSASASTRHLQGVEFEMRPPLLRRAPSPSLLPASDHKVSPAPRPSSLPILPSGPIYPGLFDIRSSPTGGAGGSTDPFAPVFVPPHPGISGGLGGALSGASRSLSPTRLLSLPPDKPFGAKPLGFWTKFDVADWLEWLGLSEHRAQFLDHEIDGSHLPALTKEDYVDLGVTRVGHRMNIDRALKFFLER
row,Variant,effect of a mutation on the interaction
1,L646A,disrupting interaction

# Variants of: B2
# Details: with shan2_rat Shank2, Q9QX74
row,Variant,effect of a mutation on the interaction
1,L646A,disrupting interaction
